# Patent US20110189154A1 (published 2011)
# Biological target: T1, Tsa1 (S. cerevisiae 2-Cys peroxyredoxin) (S. cerevisiae, UniProt P34760 2-196)
# T1 construct: Endogenous yeast protein after H2O2 treatment of the cells; also called Tsa1 protein
# T1 sequence (looked up): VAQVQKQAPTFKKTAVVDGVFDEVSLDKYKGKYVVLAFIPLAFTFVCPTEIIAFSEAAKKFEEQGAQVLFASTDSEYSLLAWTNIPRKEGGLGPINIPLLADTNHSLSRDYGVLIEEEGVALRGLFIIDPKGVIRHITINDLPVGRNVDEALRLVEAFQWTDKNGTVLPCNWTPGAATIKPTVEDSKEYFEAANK
# Test: Western blot of Srx1-HA after nonreducing/reducing SDS-PAGE (FIG. 7a)
# Experimental: FIG. 7 illustrates the interaction between Tsa1 and Srx1 in a covalent (disulfide bridge) and noncovalent manner; FIG. 7a: Western blotting of the HA-tagged Srx1 protein (lanes 1, 2 and 3) or of HA-tagged Srx1^C84S (lane 4) expressed in a wild-type strain (WT) (lanes 1, 2, 4) or in Δtsa1 cells (lane 3) treated for 15 min with H₂O₂ (500 μM), after SDS-PAGE electrophoresis carried out under reducing (R) (lane 2) or nonreducing (NR) (lanes 1, 3, 4) conditions; FIG. 7b: the proteins copurified with the Srx1 tagged with 6His (lanes 2, 4) or the untagged Srx1 (lanes 1, 3) under nonreducing conditions are separated by SDS-PAGE under nonreducing (lanes 1, 2) or reducing (lanes 3, 4) conditions and visualized by Coomassie blue staining. The protein bands are identified by MALDI-TOF mass spectrometry as indicated;
# (A) Cells containing a tagged (HA) copy of the Srx1 protein are treated with 500 μM of H₂O₂ for 15 minutes. […]
binder,measurement,value
"Srx1-HA (S. cerevisiae Srx1 with two HA epitopes at the C-terminal) (enzyme, not shown: small tags and cut ends, Two HA epitopes fused at the C-terminal of Srx1 (letters not given, left out). In the assay Cys84 forms an intermolecular disulfide bridge with Tsa1., also called HA-tagged Srx1 protein) MSLQSNSVKPTEIPLSEIRRPLAPVLDPQKIDAMVATMKGIPTASKTCSLEQAEAAASAGELPPVDVLGVRVKGQTLYYAFGGCHRLQAYDRRARETQNAAFPVRCRVLPATPRQIRMYLGSSLDIE",binding result,binds
